{
  "source": "the supplement of paper PMC5998384",
  "key": {"[1]": {"test_system": "HeLa Kyoto", "assay": "melting temperature (median over replicates), in situ; higher = more thermally stable"}, "[2]": {"test_system": "HeLa Kyoto", "assay": "solubility in G1/S (NP-40 vs SDS abundance) (log2 ratio); higher = more soluble", "conditions": "cell cycle stage: G1/S"}, "[3]": {"test_system": "HeLa Kyoto", "assay": "thermal stability score vs G1/S (z-score of summed log2 fold changes over temperatures); higher = more thermally stable than in G1/S"}, "[4]": {"test_system": "HeLa Kyoto", "assay": "solubility change mitosis vs G1/S (difference of NP-40 vs SDS log2 ratios) (log2 ratio difference); higher = more soluble in mitosis"}, "[5]": {"conditions": "cell cycle stage: early G1 (4.5 h after nocodazole release)"}},
  "data": [
    {"sequence": "MEKILQMAEGIDIGEMPSYDLVLSKPSKGQKRHLSTCDGQNPPKKQAGSKFHARPRFEPVHFVASSSKDERQEDPYGPQTKEVNEQTHFASMPRDIYQDYTQDSFSIQDGNSQYCDSSGFILTKDQPVTANMYFDSGNPAPSTTSQQANSQSTPEPSPSQTFPESVVAEKQYFIEKLTATIWKNLSNPEMTSGSDKINYTYMLTRCIQACKTNPEYIYAPLKEIPPADIPKNKKLLTDGYACEVRCQNIYLTTGYAGSKNGSRDRATELAVKLLQKRIEVRVVRRKFKHTFGEDLVVCQIGMSSYEFPPALKPPEDLVVLGKDASGQPIFNASAKHWTNFVITENANDAIGILNNSASFNKMSIEYKYEMMPNRTWRCRVFLQDHCLAEGYGTKKTSKHAAADEALKILQKTQPTYPSVKSSQCHTGSSPRGSGKKKDIKDLVVYENSSNPVCTLNDTAQFNRMTVEYVYERMTGLRWKCKVILESEVIAEAVGVKKTVKYEAAGEAVKTLKKTQPTVINNLKKGAVEDVISRNEIQGRSAEEAYKQQIKEDNIGNQLLRKMGWTGGGLGKSGEGIREPISVKEQHKREGLGLDVERVNKIAKRDIEQIIRNYARSESHTDLTFSRELTNDERKQIHQIAQKYGLKSKSHGVGHDRYLVVGRKRRKEDLLDQLKQEGQVGHYELVMPQAN [NKRF]", "values": [
      {"measurement": "melting temperature", "setting": "[1]; cell cycle stage: G1/S", "result": 44.4, "unit": "°C"},
      {"measurement": "melting temperature", "setting": "[1]; cell cycle stage: mitosis", "result": 48, "unit": "°C"},
      {"measurement": "solubility in G1/S (log2)", "setting": "[2]", "result": -0.517},
      {"measurement": "thermal stability score", "setting": "[3]; [5]", "result": 3.45},
      {"measurement": "thermal stability score", "setting": "[3]; cell cycle stage: mitosis", "result": 6.93},
      {"measurement": "solubility change mitosis (log2)", "setting": "[4]", "result": 0.226}
    ]},
    {"sequence": "MEKLHQCYWKSGEPQSDDIEASRMKRAAAKHLIERYYHQLTEGCGNEACTNEFCASCPTFLRMDNNAAAIKALELYKINAKLCDPHPSKKGASSAYLENSKGAPNNSCSEIKMNKKGARIDFKDVTYLTEEKVYEILELCREREDYSPLIRVIGRVFSSAEALVQSFRKVKQHTKEELKSLQAKDEDKDEDEKEKAACSAAAMEEDSEASSSRIGDSSQGDNNLQKLGPDDVSVDIDAIRRVYTRLLSNEKIETAFLNALVYLSPNVECDLTYHNVYSRDPNYLNLFIIVMENRNLHSPEYLEMALPLFCKAMSKLPLAAQGKLIRLWSKYNADQIRRMMETFQQLITYKVISNEFNSRNLVNDDDAIVAASKCLKMVYYANVVGGEVDTNHNEEDDEEPIPESSELTLQELLGEERRNKKGPRVDPLETELGVKTLDCRKPLIPFEEFINEPLNEVLEMDKDYTFFKVETENKFSFMTCPFILNAVTKNLGLYYDNRIRMYSERRITVLYSLVQGQQLNPYLRLKVRRDHIIDDALVRLEMIAMENPADLKKQLYVEFEGEQGVDEGGVSKEFFQLVVEEIFNPDIGMFTYDESTKLFWFNPSSFETEGQFTLIGIVLGLAIYNNCILDVHFPMVVYRKLMGKKGTFRDLGDSHPVLYQSLKDLLEYEGNVEDDMMITFQISQTDLFGNPMMYDLKENGDKIPITNENRKEFVNLYSDYILNKSVEKQFKAFRRGFHMVTNESPLKYLFRPEEIELLICGSRNLDFQALEETTEYDGGYTRDSVLIREFWEIVHSFTDEQKRLFLQFTTGTDRAPVGGLGKLKMIIAKNGPDTERLPTSHTCFNVLLLPEYSSKEKLKERLLKAITYAKGFGML [UBE3A]", "values": [
      {"measurement": "melting temperature", "setting": "[1]; cell cycle stage: G1/S", "result": 52.8, "unit": "°C"},
      {"measurement": "melting temperature", "setting": "[1]; cell cycle stage: mitosis", "result": 52, "unit": "°C"},
      {"measurement": "solubility in G1/S (log2)", "setting": "[2]", "result": -0.0632},
      {"measurement": "thermal stability score", "setting": "[3]; [5]", "result": -0.231},
      {"measurement": "thermal stability score", "setting": "[3]; cell cycle stage: mitosis", "result": -0.936},
      {"measurement": "solubility change mitosis (log2)", "setting": "[4]", "result": -0.175}
    ]},
    {"sequence": "MEKTCIDALPLTMNSSEKQETVCIFGTGDFGRSLGLKMLQCGYSVVFGSRNPQKTTLLPSGAEVLSYSEAAKKSGIIIIAIHREHYDFLTELTEVLNGKILVDISNNLKINQYPESNAEYLAHLVPGAHVVKAFNTISAWALQSGALDASRQVFVCGNDSKAKQRVMDIVRNLGLTPMDQGSLMAAKEIEKYPLQLFPMWRFPFYLSAVLCVFLFFYCVIRDVIYPYVYEKKDNTFRMAISIPNRIFPITALTLLALVYLPGVIAAILQLYRGTKYRRFPDWLDHWMLCRKQLGLVALGFAFLHVLYTLVIPIRYYVRWRLGNLTVTQAILKKENPFSTSSAWLSDSYVALGILGFFLFVLLGITSLPSVSNAVNWREFRFVQSKLGYLTLILCTAHTLVYGGKRFLSPSNLRWYLPAAYVLGLIIPCTVLVIKFVLIMPCVDNTLTRIRQGWERNSKH [STEAP4]", "values": [
      {"measurement": "melting temperature", "setting": "[1]; cell cycle stage: G1/S", "result": 60.3, "unit": "°C"},
      {"measurement": "melting temperature", "setting": "[1]; cell cycle stage: mitosis", "result": 57.7, "unit": "°C"},
      {"measurement": "solubility in G1/S (log2)", "setting": "[2]", "result": -0.0287},
      {"measurement": "thermal stability score", "setting": "[3]; [5]", "result": -2.95},
      {"measurement": "thermal stability score", "setting": "[3]; cell cycle stage: mitosis", "result": -3.54},
      {"measurement": "solubility change mitosis (log2)", "setting": "[4]", "result": -0.115}
    ]},
    {"sequence": "MELGSCLEGGREAAEEEGEPEVKKRRLLCVEFASVASCDAAVAQCFLAENDWEMERALNSYFEPPVEESALERRPETISEPKTYVDLTNEETTDSTTSKISPSEDTQQENGSMFSLITWNIDGLDLNNLSERARGVCSYLALYSPDVIFLQEVIPPYYSYLKKRSSNYEIITGHEEGYFTAIMLKKSRVKLKSQEIIPFPSTKMMRNLLCVHVNVSGNELCLMTSHLESTRGHAAERMNQLKMVLKKMQEAPESATVIFAGDTNLRDREVTRCGGLPNNIVDVWEFLGKPKHCQYTWDTQMNSNLGITAACKLRFDRIFFRAAAEEGHIIPRSLDLLGLEKLDCGRFPSDHWGLLCNLDIIL [TDP2]", "values": [
      {"measurement": "melting temperature", "setting": "[1]; cell cycle stage: G1/S", "result": 49.7, "unit": "°C"},
      {"measurement": "melting temperature", "setting": "[1]; cell cycle stage: mitosis", "result": 51.7, "unit": "°C"},
      {"measurement": "solubility in G1/S (log2)", "setting": "[2]", "result": 0.116},
      {"measurement": "thermal stability score", "setting": "[3]; [5]", "result": -0.731},
      {"measurement": "thermal stability score", "setting": "[3]; cell cycle stage: mitosis", "result": -0.039},
      {"measurement": "solubility change mitosis (log2)", "setting": "[4]", "result": -0.193}
    ]},
    {"sequence": "MELQPPEASIAVVSIPRQLPGSHSEAGVQGLSAGDDSELGSHCVAQTGLELLASGDPLPSASQNAEMIETGSDCVTQAGLQLLASSDPPALASKNAEVTGTMSQDTEVDMKEVELNELEPEKQPMNAASGAAMSLAGAEKNGLVKIKVAEDEAEAAAAAKFTGLSKEELLKVAGSPGWVRTRWALLLLFWLGWLGMLAGAVVIIVRAPRCRELPAQKWWHTGALYRIGDLQAFQGHGAGNLAGLKGRLDYLSSLKVKGLVLGPIHKNQKDDVAQTDLLQIDPNFGSKEDFDSLLQSAKKKSIRVILDLTPNYRGENSWFSTQVDTVATKVKDALEFWLQAGVDGFQVRDIENLKDASSFLAEWQNITKGFSEDRLLIAGTNSSDLQQILSLLESNKDLLLTSSYLSDSGSTGEHTKSLVTQYLNATGNRWCSWSLSQARLLTSFLPAQLLRLYQLMLFTLPGTPVFSYGDEIGLDAAALPGQPMEAPVMLWDESSFPDIPGAVSANMTVKGQSEDPGSLLSLFRRLSDQRSKERSLLHGDFHAFSAGPGLFSYIRHWDQNERFLVVLNFGDVGLSAGLQASDLPASASLPAKADLLLSTQPGREEGSPLELERLKLEPHEGLLLRFPYAA [SLC3A2]", "values": [
      {"measurement": "melting temperature", "setting": "[1]; cell cycle stage: G1/S", "result": 59.8, "unit": "°C"},
      {"measurement": "melting temperature", "setting": "[1]; cell cycle stage: mitosis", "result": 60.5, "unit": "°C"},
      {"measurement": "solubility in G1/S (log2)", "setting": "[2]", "result": 0.345},
      {"measurement": "thermal stability score", "setting": "[3]; [5]", "result": -2.05},
      {"measurement": "thermal stability score", "setting": "[3]; cell cycle stage: mitosis", "result": -1.32},
      {"measurement": "solubility change mitosis (log2)", "setting": "[4]", "result": -0.0187}
    ]}
  ]
}
